Measurements published in the DeepSol protein solubility set.

test: soluble on expression in E. coli; label from the status in PepcDB or PDB records

**Q.** Which “soluble on expression in E. coli” value does the source give for “MTEKTTVKTLKDVVVRFCGDSGDGMQLTGTIFSDLSAVFGNTISTFPDYPAEIRAPQGTLGGVSGFQVHIGTDLVRTPGDLADVLVAMNPAALKVNRTHVRRDSIIIIDSDSFMASDLEKAEIASEDFMTELGLTTQELFTVPISSMVKKSTAEFGLDVKAALRCKNMFALGLVCWLFDRPTQHAIDYLNRKFGKKEAILNANIKALADGFNYGHNTHATATTYRIEGRKQTPGVYMDISGNKATAYGLVAAAEHANLNLFLGSYPITPATDILHELAKLKSLGVKTVQAEDEIAGICTAIGVSFAGDLAVTTTSGPGLALKSEALGLTVMAELPLVLVDVQRGGPSTGLPTKSEQTDLLQALFGRNGESPIPVIAATTPSDCFDSAFWACKIALEHMTPVILLTDAFIANGSSAWRIPDPQSYPDIRPPYVDQYKGEAKWRPYFRNEETHVRYWAIPGQEGFQHRLGGLEKDYVTGAISTNPENHAKMVATREAKVQAIAQDIPDLEVHGDKDDAELLIIGWGGTYGHLYETMERMRNAGKKVALAHFRFINPLPKNTAEVLQRYPKAVVAEQNLGQFALYLRGEVPGFHPLQFNRVTGQPLVMSEMVEVFTQMMEEK” here?
**A.** The value was “not soluble”.

**Q.** Which “soluble on expression in E. coli” value does the source give for “MTELLVTPKSLSHMETLIDLGADAFVIGEQKFGLRLPGEFNRQQMTEAVALAHKNDKKVYAAVNGLFHNYHLDAVEDYINFLHEIRVDRIIFGDPAVVMYVKAQENPIPLHWNAETLVTNHFQCNYWGKRGASRAVLARELNLDEIINIKENSNVEIEVQVQGMTCMFQSKRMLLGNYYTFQDRQMKIERRNDEQSLLLYDEERQNNYPVYEDYNGTHIMSPNDICLIEELAPFFEAGIDSFKIDGILQTEEYINVVTEQYRQAIDLYNEDPEIYEDEKFMLMDPIEEIQPDHRPFDEGFLYKQTVY” here?
**A.** Its value is “not soluble”.

**Q.** With “MTEQLFDSLAKQNGFRVLSGGKYGGNNGFDHVWQAADGSVVLIVESKQIRNGTVQLNPNGAGGYTQMSREWIKQVVKSLPDGSPAKAVVLKANQNGKLKTAIAGVDRQTGKAVILSVKVPSKTNIRR” as the sequence, how does the “soluble on expression in E. coli” value read?
**A.** The value was “not soluble”.

**Q.** Which “soluble on expression in E. coli” value does the source give for “MTESDLRTHATEIHEQFSDQLEIDVDDVIERLDTLVNDYQVPISEARRSVVNTYLDEAGMDRDQLGGGDGGGNEQVNVADVDAPEEWVDVRATVVELWEPRADAVAQVGLLGDETGTIKFTKWSKSDLPSLEEGKSYALRNVVTDEYQGRFSVKLNRTTTIEELDEAIEVGDDSVEADGALVDIQSGSGLIKRCPEDDCTRVLQNGRCSEHGEVEGEFDLRIKGVLDDGEEVTEVIFDEDATEELTGIALEEAKEMAMDALDTTVVADEMRQKILGRYYRVRGPTFGRYLLADEQERLTGAVDADEILIKARSILEHHHHHH” here?
**A.** The value was “not soluble”.

**Q.** For “MTETEQEAFADLVAELETQTAEAVKAFSKVFDRMEETNDDKEGLSLLKLKNYEMTAYLGELTVLMSKMMKGESITVEPSVKRALKHRVFIEKMKPVEDKMKPQIEKLLGRSSAESGASNGSSKGNHRVRLDNMDVEGDEEEEEEDEDDEEGKGAKEVKKYVAPRIRAVRYEEEDEAPNKQQEKAKRRAMQSSLIMELKNQYSDAPEEIREMSEKKYQYDRERERYEEDNFTRIRLNKDQKRRSEQLGRSETLDDLLSFGDYMMRGEDGRALSEGNKRKRATSSGAGGDTKRHKKSQKERKKAAKGKKEGRKRAIRRRQ”, which “soluble on expression in E. coli” value is on record?
**A.** Its value is “not soluble”.

**Q.** With “MTEVVLHIYDVTNSGSEKTNNTIVQINRFFKDGIGLGGIFHSAIQVYGNDEWSYGYCELGTGVFSCPSGKNPMYTYREKIVLGKTDCTIFMVNQMLRELSREWPGHTYDLLSKNCNHFCDVLCDRLGVPKIPGWVNRFANAGDTALEVAGNTAMRMKQAKTELVSASKVAYRFLSNVTSNVTNGSNGSPQRPGTLNNSDSGNLRLQGSWLKGLLNTAKPSTSTEIGNKDEDANHAVTNQKKQSRDSDVLLFQ” as the sequence, how does the “soluble on expression in E. coli” value read?
**A.** The value was “not soluble”.

**Q.** For “MTFEEYQKEAQKTALYPEAYRLVYPALGLAGEAGELANKVKKVLRDHGGRLSEEAREAILAELGDVLWYVAQVATDLGESLEAVAQANLAKLRSRKERGRLGGDGDDR”, which “soluble on expression in E. coli” value is on record?
**A.** The value was “soluble”.

**Q.** Which “soluble on expression in E. coli” value does the source give for MTFEMLYSKIHRATITDANLNYIG here?
**A.** Its value is “soluble”.

**Q.** For “MTFLIPAYNEEKSIGPLIDRIKMLCPDSEIIVVDNNSSDRTSEIATSRGVRVIFEGKQGKANAMVAAFRNTRTEYAVMMDADLTYLPDDSRVLVEVLKAEGADVVLGSRLNGEKEDGAISRINTVGNHILSFTASILYSPVSDVCTGHWAFNRRAIRHILEEGLNYSGFELEAEMFSKLARAGLKIVEVPITYRKRSDEPKLSSFTDGFKIFRTLVLERLRLEHHHHHH”, which “soluble on expression in E. coli” value is on record?
**A.** The value was “not soluble”.

**Q.** Which “soluble on expression in E. coli” value does the source give for “MTFQNKKILVAGLGGTGISMIAYLRKNGAEVAAYDAELKAERVAQIGKMFDGLVFYTGRLKDALDNGFDILALSPGISERQPDIEAFKQNGGRVL” here?
**A.** Its value is “not soluble”.

**Q.** For “MTFSDPMDPSIPIFQHHEEEEAGPSTTIKAEEEDGPCCLVCGRVANTGHHYGVTACLGCKTFFRRVVLQKNSPKCKYKNHCRLEKSVNAKRLCRSCRYQKCLEVGMTEDALHPCRDVIGRRVRNNSSDSSPISSPPSIPTPLSICKLMNLSEGDHKLLQTITDMDTDIRTRTAHILGEPANGNEQIHFYSPTPDYTNVIVNHGIGPSLKVDILLLREWVDRIPGFRELSERFQQHLMHRFCLRYTVIEHGLFTAQMPYHKNVWFLSDRTCLVSEFENLPQEIKKHLTPKVINEQQLLASFTEMLIHEVADPLRRLKPDSVEVATVKTLMLLKPTCLREIDGDYLSTETDIKSVNDVRNRVINGLYSHYIKNGMDPEQLPIRVSEILNLTGGVEQCAARALEEMHPTRVFNLSSFDPYSSNVIFGYYRDV”, which “soluble on expression in E. coli” value is on record?
**A.** The value was “not soluble”.

**Q.** Which “soluble on expression in E. coli” value does the source give for “MTGALAMMPSTSSPYPLLAPPTCSSRLPPLRCFVGLRWSAPRIQVREYPDAVAGIAKGAGGRGGRFRAPASSISQPCSRTIIITNEHVQNADFPPNYSKREKKPFPIPVLELRRRAKERAKKAEGKPKRSLPPPKNGMLIKRLIPVAYKVYNARILLINNLKRLMKVIPVKGCKHCSEIHVGSVGHPFRTCKGMSSDKRRGQHDWGGTLVEAVFVPVEAYHLEDRLGKRIPHDQRFAVPRIPALVELCIQAGVNLPEYPTKRRRKPIIKIGKNEFVDANEDDLPDPEPYKLEHPILEELNDNEIIAPASPEEIVALAEETLEAWEVVRDGALKLMKGYAVRVCGYCPEVHIGASGHKARNCGAFKHQQRNGQHGWQAAVLDDLIPPRYVWHLPESGEDLQRDLKSFYGQAPAIVEICVQAGAKVPEKYKATMRLDIGIPTSLREAEMVV” here?
**A.** Its value is “not soluble”.

**Q.** With “MTGIREGEKELSLLGSKTEYRNDYAPEVLEAFTNKHQENDYWVRFNCPEFTSLCPITGQPDFATIYINYIPDVKMVESKSLKLYLFSFRNHGAFHEDCVNIIMKDLIALMQPRYIEVWGDFTPRGGISIVPFCNYGKPGSRYELLAEKRMETHH” as the sequence, how does the “soluble on expression in E. coli” value read?
**A.** The value was “not soluble”.

**Q.** For “MTIAYEHPNALTYLKSMKENIIRFANKKSLYTQHDEYIKNVFMDERVNLKYHCESIVSYIAEAFIHYSVWDHSHAYYPGRPSQQTARTDALEGTSRTLPTLAAWLHANGRSNTIITGLNQQPILVPEILRKAFLAGTNPQHKGYWGTLHHCDQRVCEGADLALALWMSKEWVWDCFSIDEKCQIITWFKQVNQCETVDNNWHLFVLTVQIVLKALTGEDEVQYDKYERVKEFYVGDGWFRDGAKGNYDYYNAWAFHYSLYWFTQIDVDFDSTFINNALSDFVGNYRYFFGKEGFPFFGRSACYRLAAAAPLLAAVDLQSDKITIGEAKRAFHCNLKYFISNGALKAGLPTQGLFDEDVRLVDNYSGPASSLWSLRALNIALFCGEKINLWQAEEAPLAIEQGNFELDISAINMKILGVYETQEVIAIFKNEYTQDQSPLSRRLLAPSLEHHHHHH”, which “soluble on expression in E. coli” value is on record?
**A.** The value was “soluble”.

**Q.** With “MTIPEQNNNPIVEISIPVSTQQALEKVNATKSAWLEARRQQKAAADNIATIRQRRAEMEATTNALNEEWRTLFRESQGVVSKEMKKLRTEIALGRETLEDFDELLAAQESENALLPQEAAELAGKYIHAHDTLVGIRAKQIWEDFMQSHGKALIQTLSLLKSTMGREASAVVGVVHSVNDPDTLLKDFIHKHITRPALTNDAMPEQDPVFKLAGVAPDYAARLDFSNKLSPAAMHKMKVRQERAEKEKAV” as the sequence, how does the “soluble on expression in E. coli” value read?
**A.** The value was “soluble”.

**Q.** Which “soluble on expression in E. coli” value does the source give for “MTIRMIPHPIFSSPTKRRREKPDPPARAGAAQPSGPARMTPQQQTEWQQRLIALLESQPPDDDGAHDLSHLHRVWAVARTLLAHYPDADSIVVMAGSYLHDLVNLPKNHPQRQLASHWSAERARQLLADSGLTEAQLDNLAHAIEAHSYSAAIPPRTLEARIVQDADRMDALGPVGLARMFYVSGRMGRALAHPLDPLAEHRGRDDQAWAIDHIDVKLAKLPGMMQTEAGRAMAERKLEWLFHFRDEFCRDWMARLEHHHHHH” here?
**A.** Its value is “soluble”.
